Patent publication US20040185507A1
pKd: −log10 of the molar value.

Experiments:
[1] = target: alpha V integrins (αvβ3 and αvβ5) on human cells (human) (UniProt P06756); test: cell-based or functional assay
[2] = target: alpha V integrins (αvβ3 and αvβ5) on human cells (human) (UniProt P06756); test: 125-I antibody saturation binding on M21 cells (n = 4)
[3] = target: alpha V integrins (αvβ3 and αvβ5) on human cells (human) (UniProt P06756); test: 125-I antibody saturation binding on M21 cells (n = 8)
[4] = target: alpha V integrins (αvβ3 and αvβ5) on human cells (human) (UniProt P06756); test: 125-I antibody saturation binding on A375S2 cells (n = 5)
[5] = target: alpha V integrins (αvβ3 and αvβ5) on human cells (human) (UniProt P06756); test: 125-I antibody saturation binding on A375S2 cells (n = 7)
[6] = target: alpha V integrins (αvβ3 and αvβ5) on human cells (human) (UniProt P06756); test: 125-I antibody binding on A375S2 and M21 cells, rounded summary
[7] = target: alpha V integrins (αvβ3 and αvβ5) on human cells (human) (UniProt P06756); test: flow cytometry on M21 cells; labeled CNTO95 2 µg/mL; no competitor (saline)
[8] = target: alpha V integrins (αvβ3 and αvβ5) on human cells (human) (UniProt P06756); test: flow cytometry on M21 cells; labeled CNTO95 20 µg/mL; no competitor (saline)
[9] = target: alpha V integrins (αvβ3 and αvβ5) on human cells (human) (UniProt P06756); test: flow cytometry on M21 cells; labeled CNTO95 2 µg/mL; competitor m7E3 IgG 20 µg/mL; set-up: % Positive: reference not given here
[10] = target: alpha V integrins (αvβ3 and αvβ5) on human cells (human) (UniProt P06756); test: flow cytometry on M21 cells; labeled CNTO95 20 µg/mL; competitor m7E3 IgG 20 µg/mL
[11] = target: alpha V integrins (αvβ3 and αvβ5) on human cells (human) (UniProt P06756); test: flow cytometry on M21 cells; labeled CNTO95 2 µg/mL; competitor anti-β3 (AMAC) 20 µg/mL
[12] = target: alpha V integrins (αvβ3 and αvβ5) on human cells (human) (UniProt P06756); test: flow cytometry on M21 cells; labeled CNTO95 20 µg/mL; competitor anti-β3 (AMAC) 20 µg/mL
[13] = target: alpha V integrins (αvβ3 and αvβ5) on human cells (human) (UniProt P06756); test: flow cytometry on M21 cells; labeled CNTO95 2 µg/mL; competitor P1F6 (anti-αvβ5) 20 µg/mL; set-up: % Positive: reference not given here
[14] = target: alpha V integrins (αvβ3 and αvβ5) on human cells (human) (UniProt P06756); test: flow cytometry on M21 cells; labeled CNTO95 2 µg/mL; competitor VNR139 (anti-αv) 20 µg/mL
[15] = target: alpha V integrins (αvβ3 and αvβ5) on human cells (human) (UniProt P06756); test: flow cytometry on M21 cells; labeled CNTO95 2 µg/mL; competitor LM609 (anti-αvβ3) 20 µg/mL; set-up: % Positive: reference not given here
[16] = target: alpha V integrins (αvβ3 and αvβ5) on human cells (human) (UniProt P06756); test: flow cytometry on M21 cells; labeled CNTO95 20 µg/mL; competitor P1F6 (anti-αvβ5) 20 µg/mL
[17] = target: alpha V integrins (αvβ3 and αvβ5) on human cells (human) (UniProt P06756); test: flow cytometry on M21 cells; labeled CNTO95 20 µg/mL; competitor VNR139 (anti-αv) 20 µg/mL
[18] = target: alpha V integrins (αvβ3 and αvβ5) on human cells (human) (UniProt P06756); test: flow cytometry on M21 cells; labeled CNTO95 2 µg/mL; competitor anti-β3 (Chemicon) 20 µg/mL
[19] = target: alpha V integrins (αvβ3 and αvβ5) on human cells (human) (UniProt P06756); test: flow cytometry on M21 cells; labeled CNTO95 20 µg/mL; competitor LM609 (anti-αvβ3) 20 µg/mL
[20] = target: alpha V integrins (αvβ3 and αvβ5) on human cells (human) (UniProt P06756); test: flow cytometry on M21 cells; labeled CNTO95 20 µg/mL; competitor anti-β3 (Chemicon) 20 µg/mL
[21] = target: αvβ3 integrin on human cells (human) (UniProt P06756); test: cell-based or functional assay
[22] = target: αvβ3 integrin on human cells (human) (UniProt P06756); test: radiolabeled antibody binding on A375S2 cells (n = 2)
[23] = target: αvβ5 integrin on human cells (human) (UniProt P06756); test: cell-based or functional assay
[24] = target: αvβ5 integrin on human cells (human) (UniProt P06756); test: radiolabeled antibody binding on M21 cells (n = 2)
[25] = target: αvβ5 integrin on human cells (human) (UniProt P06756); test: radiolabeled antibody binding on HT-29 cells (n = 1)
[26] = target: αvβ5 integrin on human cells (human) (UniProt P06756); test: radiolabeled antibody binding on A375S2 cells (n = 4)

αvβ5 integrin on human cells (human), sequence (P06756 31-1048, chain 1 of 2): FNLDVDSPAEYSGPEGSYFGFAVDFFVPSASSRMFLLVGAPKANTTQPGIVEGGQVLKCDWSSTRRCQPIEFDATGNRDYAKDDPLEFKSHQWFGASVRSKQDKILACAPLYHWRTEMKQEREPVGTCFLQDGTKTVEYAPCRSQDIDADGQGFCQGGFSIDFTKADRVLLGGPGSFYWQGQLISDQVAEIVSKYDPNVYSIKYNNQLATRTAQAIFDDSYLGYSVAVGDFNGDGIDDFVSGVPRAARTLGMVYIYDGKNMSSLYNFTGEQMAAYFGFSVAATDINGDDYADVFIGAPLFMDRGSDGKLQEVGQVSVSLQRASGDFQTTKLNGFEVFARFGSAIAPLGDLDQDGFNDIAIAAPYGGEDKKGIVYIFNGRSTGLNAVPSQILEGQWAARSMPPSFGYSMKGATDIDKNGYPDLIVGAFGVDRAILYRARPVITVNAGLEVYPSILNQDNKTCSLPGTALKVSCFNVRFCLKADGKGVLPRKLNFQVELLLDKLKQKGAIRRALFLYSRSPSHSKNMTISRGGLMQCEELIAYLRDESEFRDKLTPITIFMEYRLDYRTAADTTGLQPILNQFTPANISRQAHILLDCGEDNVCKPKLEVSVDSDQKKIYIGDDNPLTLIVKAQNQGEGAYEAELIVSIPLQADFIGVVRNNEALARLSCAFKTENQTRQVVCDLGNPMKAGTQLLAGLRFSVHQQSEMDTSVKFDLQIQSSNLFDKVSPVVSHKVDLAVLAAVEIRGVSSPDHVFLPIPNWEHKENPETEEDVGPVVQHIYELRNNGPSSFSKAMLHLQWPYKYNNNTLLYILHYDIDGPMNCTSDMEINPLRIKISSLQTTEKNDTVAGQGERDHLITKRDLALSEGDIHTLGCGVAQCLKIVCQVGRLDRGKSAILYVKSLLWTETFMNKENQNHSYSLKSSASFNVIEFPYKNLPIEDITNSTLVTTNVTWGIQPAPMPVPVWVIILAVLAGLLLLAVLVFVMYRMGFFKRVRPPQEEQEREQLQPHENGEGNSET
αvβ5 integrin on human cells (human), sequence (P18084 24-799, chain 2 of 2, further chain): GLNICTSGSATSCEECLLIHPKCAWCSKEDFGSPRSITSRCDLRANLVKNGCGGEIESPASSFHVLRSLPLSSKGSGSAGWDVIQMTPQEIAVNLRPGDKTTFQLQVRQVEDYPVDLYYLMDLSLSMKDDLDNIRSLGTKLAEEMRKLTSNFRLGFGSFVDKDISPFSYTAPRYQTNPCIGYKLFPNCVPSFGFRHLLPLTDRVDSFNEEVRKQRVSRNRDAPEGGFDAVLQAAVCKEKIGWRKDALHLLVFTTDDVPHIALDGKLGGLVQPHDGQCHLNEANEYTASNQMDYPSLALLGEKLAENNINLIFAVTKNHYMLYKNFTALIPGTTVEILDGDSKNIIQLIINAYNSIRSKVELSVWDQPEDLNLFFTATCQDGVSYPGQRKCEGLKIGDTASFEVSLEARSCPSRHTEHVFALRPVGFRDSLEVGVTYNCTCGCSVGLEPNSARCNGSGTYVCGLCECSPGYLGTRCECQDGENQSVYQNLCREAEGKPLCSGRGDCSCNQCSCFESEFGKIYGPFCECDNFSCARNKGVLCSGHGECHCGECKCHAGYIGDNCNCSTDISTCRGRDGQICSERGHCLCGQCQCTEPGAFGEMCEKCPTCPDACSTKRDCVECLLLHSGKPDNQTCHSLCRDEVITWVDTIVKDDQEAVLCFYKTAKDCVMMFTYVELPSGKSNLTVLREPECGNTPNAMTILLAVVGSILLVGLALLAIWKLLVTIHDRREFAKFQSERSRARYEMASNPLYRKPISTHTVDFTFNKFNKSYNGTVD
αvβ3 integrin on human cells (human), sequence (P06756 31-1048, chain 1 of 2): as the sequence (P06756 31-1048, chain 1 of 2) above
αvβ3 integrin on human cells (human), sequence (P05106 27-788, chain 2 of 2, further chain): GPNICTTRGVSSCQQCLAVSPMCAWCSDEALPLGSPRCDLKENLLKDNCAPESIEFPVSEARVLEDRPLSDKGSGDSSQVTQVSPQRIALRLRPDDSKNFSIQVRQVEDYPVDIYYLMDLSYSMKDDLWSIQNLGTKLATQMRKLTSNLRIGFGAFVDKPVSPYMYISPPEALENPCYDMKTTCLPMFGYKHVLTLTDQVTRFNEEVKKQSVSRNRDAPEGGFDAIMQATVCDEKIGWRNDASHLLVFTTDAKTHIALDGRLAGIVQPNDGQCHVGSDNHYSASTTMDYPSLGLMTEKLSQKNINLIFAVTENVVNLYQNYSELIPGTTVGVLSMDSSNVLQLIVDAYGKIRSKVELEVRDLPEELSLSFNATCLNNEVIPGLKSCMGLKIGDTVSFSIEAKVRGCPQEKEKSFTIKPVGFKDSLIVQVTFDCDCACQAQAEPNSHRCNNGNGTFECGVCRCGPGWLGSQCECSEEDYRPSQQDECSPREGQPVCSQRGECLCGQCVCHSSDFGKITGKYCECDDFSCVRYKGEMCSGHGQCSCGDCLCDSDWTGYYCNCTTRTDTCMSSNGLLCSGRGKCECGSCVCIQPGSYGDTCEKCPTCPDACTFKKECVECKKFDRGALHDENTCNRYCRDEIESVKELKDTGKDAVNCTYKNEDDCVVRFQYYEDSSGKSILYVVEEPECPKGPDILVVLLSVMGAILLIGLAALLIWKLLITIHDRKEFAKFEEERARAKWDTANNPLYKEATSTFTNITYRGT

CNTO 95 (antibody) gave an A375S.2 cell adhesion to fibrin, % of no-antibody control (10 µg/ml) [1] of 43.3%, an A375S.2 cell adhesion to fibrinogen, % of no-antibody control (10 µg/ml) [1] of 11.4% and an A375S.2 cell adhesion to fibronectin, % of no-antibody control (10 µg/ml) [1] of 103%. The A375S.2 cell adhesion to gelatin, % of no-antibody control (10 µg/ml) [1] was 23.2%, the A375S.2 cell adhesion to type I collagen, % of no-antibody control (10 µg/ml) [1] was 104% and the A375S.2 cell adhesion to vitronectin, % of no-antibody control (10 µg/ml) [1] was 1.4%. It also gave an HUVEC adhesion to fibrin, % of no-antibody control (10 µg/ml) [1] of 45.1%, an HUVEC adhesion to fibrinogen, % of no-antibody control (10 µg/ml) [1] of 34.5% and an HUVEC adhesion to fibronectin, % of no-antibody control (10 µg/ml) [1] of 102%. The HUVEC adhesion to gelatin, % of no-antibody control (10 µg/ml) [1] was 54.8%, the HUVEC adhesion to type I collagen, % of no-antibody control (10 µg/ml) [1] was 97.7% and the HUVEC adhesion to vitronectin, % of no-antibody control (10 µg/ml) [1] was 3.3%. The pKd [2] was 8.07, the Receptors per cell (receptors/cell) [3] was 200000 and the pKd [4] was 8.28. For the same substance, the Receptors per cell (receptors/cell) [5] was 120000, the pKd [6] was 8.15 and the % Positive [7] was 100%. For the same substance, the MCF (Median Channel Fluorescence) [7] was 4.33, the % Positive [8] was 100% and the MCF (Median Channel Fluorescence) [8] was 14.3. The % Positive [9] was 132%, the MCF (Median Channel Fluorescence) [9] was 5.73 and the % Positive [10] was 103%. The MCF (Median Channel Fluorescence) [10] was 14.7, the % Positive [11] was 106% and the MCF (Median Channel Fluorescence) [11] was 4.61. It also gave a % Positive [12] of 91%, an MCF (Median Channel Fluorescence) [12] of 13.1 and a % Positive [13] of 112%. The MCF (Median Channel Fluorescence) [13] was 4.87, the % Positive [14] was 106% and the MCF (Median Channel Fluorescence) [14] was 4.61. For the same substance, the % Positive [15] was 110%, the MCF (Median Channel Fluorescence) [15] was 4.78 and the % Positive [16] was 101%. The MCF (Median Channel Fluorescence) [16] was 14.5, the % Positive [17] was 104% and the MCF (Median Channel Fluorescence) [17] was 14.9. It also gave a % Positive [18] of 125%, an MCF (Median Channel Fluorescence) [18] of 5.42 and a % Positive [19] of 93%. The MCF (Median Channel Fluorescence) [19] was 13.3, the % Positive [20] was 91% and the MCF (Median Channel Fluorescence) [20] was 13.1.
Human IgG (negative control) (antibody) showed an A375S.2 cell adhesion to fibrin, % of no-antibody control (10 µg/ml) [1] of 99.5%, an A375S.2 cell adhesion to fibrinogen, % of no-antibody control (10 µg/ml) [1] of 102% and an A375S.2 cell adhesion to fibronectin, % of no-antibody control (10 µg/ml) [1] of 100%. For the same substance, the A375S.2 cell adhesion to gelatin, % of no-antibody control (10 µg/ml) [1] was 94.6%, the A375S.2 cell adhesion to type I collagen, % of no-antibody control (10 µg/ml) [1] was 99.1% and the A375S.2 cell adhesion to vitronectin, % of no-antibody control (10 µg/ml) [1] was 104%. It also gave an HUVEC adhesion to fibrin, % of no-antibody control (10 µg/ml) [1] of 99.7%, an HUVEC adhesion to fibrinogen, % of no-antibody control (10 µg/ml) [1] of 108% and an HUVEC adhesion to fibronectin, % of no-antibody control (10 µg/ml) [1] of 96.8%. For the same substance, the HUVEC adhesion to gelatin, % of no-antibody control (10 µg/ml) [1] was 109%, the HUVEC adhesion to type I collagen, % of no-antibody control (10 µg/ml) [1] was 99.3% and the HUVEC adhesion to vitronectin, % of no-antibody control (10 µg/ml) [1] was 96.3%.
“LM609 (murine anti-human αvβ3 antibody, Chemicon)” showed an A375S.2 cell adhesion to fibrin, % of no-antibody control (10 µg/ml) [21] of 50%, an A375S.2 cell adhesion to fibrinogen, % of no-antibody control (10 µg/ml) [21] of 14% and an A375S.2 cell adhesion to fibronectin, % of no-antibody control (10 µg/ml) [21] of 104%. The A375S.2 cell adhesion to gelatin, % of no-antibody control (10 µg/ml) [21] was 25.2%, the A375S.2 cell adhesion to type I collagen, % of no-antibody control (10 µg/ml) [21] was 100% and the A375S.2 cell adhesion to vitronectin, % of no-antibody control (10 µg/ml) [21] was 42.1%. The HUVEC adhesion to fibrin, % of no-antibody control (10 µg/ml) [21] was 48.1%, the HUVEC adhesion to fibrinogen, % of no-antibody control (10 µg/ml) [21] was 14.3% and the HUVEC adhesion to fibronectin, % of no-antibody control (10 µg/ml) [21] was 103%. The HUVEC adhesion to gelatin, % of no-antibody control (10 µg/ml) [21] was 36.5%, the HUVEC adhesion to type I collagen, % of no-antibody control (10 µg/ml) [21] was 109% and the HUVEC adhesion to vitronectin, % of no-antibody control (10 µg/ml) [21] was 26.3%. For the same substance, the Receptors per cell (receptors/cell) [22] was 300000.
Substance P1F6 (murine anti-human αvβ5 antibody) has an A375S.2 cell adhesion to fibrin, % of no-antibody control (10 µg/ml) [23] of 92.9%, an A375S.2 cell adhesion to fibrinogen, % of no-antibody control (10 µg/ml) [23] of 99.4% and an A375S.2 cell adhesion to fibronectin, % of no-antibody control (10 µg/ml) [23] of 101%. For the same substance, the A375S.2 cell adhesion to gelatin, % of no-antibody control (10 µg/ml) [23] was 87.4%, the A375S.2 cell adhesion to type I collagen, % of no-antibody control (10 µg/ml) [23] was 101% and the A375S.2 cell adhesion to vitronectin, % of no-antibody control (10 µg/ml) [23] was 28.5%. For the same substance, the HUVEC adhesion to fibrin, % of no-antibody control (10 µg/ml) [23] was 96.7%, the HUVEC adhesion to fibrinogen, % of no-antibody control (10 µg/ml) [23] was 94.5% and the HUVEC adhesion to fibronectin, % of no-antibody control (10 µg/ml) [23] was 103%. For the same substance, the HUVEC adhesion to gelatin, % of no-antibody control (10 µg/ml) [23] was 94.4%, the HUVEC adhesion to type I collagen, % of no-antibody control (10 µg/ml) [23] was 116% and the HUVEC adhesion to vitronectin, % of no-antibody control (10 µg/ml) [23] was 39.8%. For the same substance, the Receptors per cell (receptors/cell) [24] was 44000, the Receptors per cell (receptors/cell) [25] was 73000 and the Receptors per cell (receptors/cell) [26] was 70000.
